# Measurements published in patent publication US20140072577A1 (AstraZeneca / MedImmune, published 2014).
# B1: LC10 YTE (antibody corresponding to mAb LC10 containing an Fc variant (antibody, V domains shown)
# VH: EVQLVESGGGLVQPGGSLRLSCAASGFTFSSHDMHWVRQATGKGLEWVSGIGTAGDTYYPDSVKGRFTISRENAKNSLYLQMNSLRAGDTAVYYCARDRYSPTGHYYGMDVWGQGTTVTVSS
# VL: DIQMTQSPSTLSASVGDRVTITCRASQSISSWLAWYQQKPGKAPKLLIYKASSLESGVPSRFSGSGSGTEFTLTISSLQPDDFATYYCKQYADYWTFGQGTKVEIKR
# notes: also called LC10-IgG1-YTE; MEDI4893
# Target: T1, BSA (bovine, UniProt P02769)
# T1 construct: also called bovine serum albumin
# T1 sequence (P02769 25-607 limits assumed): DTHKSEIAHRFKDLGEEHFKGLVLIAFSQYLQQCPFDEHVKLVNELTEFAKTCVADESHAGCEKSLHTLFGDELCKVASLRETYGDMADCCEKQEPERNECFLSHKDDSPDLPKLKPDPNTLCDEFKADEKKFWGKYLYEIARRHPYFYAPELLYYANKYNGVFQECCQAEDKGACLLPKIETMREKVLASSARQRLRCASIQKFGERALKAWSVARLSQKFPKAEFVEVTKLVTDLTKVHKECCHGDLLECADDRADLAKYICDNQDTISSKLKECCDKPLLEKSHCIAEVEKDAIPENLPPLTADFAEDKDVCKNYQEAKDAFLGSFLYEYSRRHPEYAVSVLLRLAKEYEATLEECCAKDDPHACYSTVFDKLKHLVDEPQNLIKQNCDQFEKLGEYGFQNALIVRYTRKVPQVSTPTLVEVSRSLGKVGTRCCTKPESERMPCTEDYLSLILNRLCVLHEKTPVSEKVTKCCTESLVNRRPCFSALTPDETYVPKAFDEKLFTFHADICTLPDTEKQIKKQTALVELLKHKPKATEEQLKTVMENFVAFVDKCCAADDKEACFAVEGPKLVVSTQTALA
# Assay: ELISA, BSA as control antigen; detection with anti-human IgG HRP
binder,measurement,value
B1,binding result,no binding
